B1: PYD-deleted human NLRP3 (NLRP3_(ΔPYD)), from the construct FLAG.6His.MBP.TEV.CfaC.NLRP3_130.K131F.M132N-1036 (domain or fragment, UniProt Q96P20 130-1036, looked up)
chain: CFNKKDYRKKYRKYVRSRFQCIEDRNARLGESVSLNKRYTRLRLIKEHRSQQEREQELLAIGKTKTCESPVSPIKMELLFDPDDEHSEPVHTVVFQGAAGIGKTILARKMMLDWASGTLYQDRFDYLFYIHCREVSLVTQRSLGDLIMSCCPDPNPPIHKIVRKPSRILFLMDGFDELQGAFDEHIGPLCTDWQKAERGDILLSSLIRKKLLPEASLLITTRPVALEKLQHLLDHPRHVEILGFSEAKRKEYFFKYFSDEAQARAAFSLIQENEVLFTMCFIPLVCWIVCTGLKQQMESGKSLAQTSKTTTAVYVFFLSSLLQPRGGSQEHGLCAHLWGLCSLAADGIWNQKILFEESDLRNHGLQKADVSAFLRMNLFQKEVDCEKFYSFIHMTFQEFFAAMYYLLEEEKEGRTNVPGSRLKLPSRDVTVLLENYGKFEKGYLIFVVRFLFGLVNQERTSYLEKKLSCKISQQIRLELLKWIEVKAKAKKLQIQPSQLELFYCLYEMQEEDFVQRAMDYFPKIEINLSTRMDHMVSSFCIENCHRVESLSLGFLHNMPKEEEEEEKEGRHLDMVQCVLPSSSHAACSHGLVNSHLTSSFCRGLFSVLSTSQSLTELDLSDNSLGDPGMRVLCETLQHPGCNIRRLWLGRCGLSHECCFDISLVLSSNQKLVELDLSDNALGDFGIRLLCVGLKHLLCNLKKLWLVSCCLTSACCQDLASVLSTSHSLTRLYVGENALGDSGVAILCEKAKNPQCNLQKLGLVNSGLTSVCCSALSSVLSTNQNLTHLYLRGNTLGDKGIKLLCEGLLHPDCKLQVLELDNCNLTSHCCWDLSTLLTSSQSLRKLSLGNNDLGDLGVMMFCEVLKQQSCLLQNLGLSEMYFNYETKSALETLQEEKPELTVVFEPSW
notes: human NLRP3 (UniProt Q96P20), residues 130-1036 (NACHT and LRR, PYD deleted) with K131F and M132N next to the CfaC intein fragment; The same protomer forms an octamer (with ATP, no MCC950), a hexamer (with ATP and MCC950) and a back-to-back dimer (with NEK7, ATP and MCC950); The second construct, MBP.TEV.NLRP3_130_1036, was used only for the ATPase and nanoDSF assays; also called …
B2: human NEK7 with kinase mutations K63M/K64M (NEK7_(K63M/K64M)) (enzyme)
chain: not shown
notes: human NEK7 (UniProt Q8TDX7) with kinase mutations K63M/K64M; also called NIMA-related kinase 7; 6His.SUMO.NEK7_(K63M/K64M); source: E. coli BL21(DE3), purified (HisPur Ni resin, Ulp1 cleavage, HisTrap flow-through, Superdex 200); not shown: His6, N-terminal, cleaved; SUMO, N-terminal, cleaved

What was measured:
[1] = biological target: the molecule itself; assay: cryo-EM structure; NLRP3_(ΔPYD) with ATP, MCC950 (10 fold molar excess) and NEK7_(K63M/K64M) (2 fold molar excess); Superdex 200 peak fractions; C2 symmetry imposed; closed NEK7/NLRP3 dimer
[2] = biological target: the molecule itself; assay: cryo-EM structure; NLRP3_(ΔPYD) with ATP and MCC950; D3 symmetry imposed; closed hexamer, seen in the dataset without NEK7 and as one of two populations in the dataset with NEK7
[3] = biological target: the molecule itself; assay: cryo-EM structure; NLRP3_(ΔPYD) with ATP, without MCC950; applied to grids immediately after SEC (Superose 6, 25 mM HEPES pH 7.4, 0.4 M NaCl, 0.2% CHAPS, 0.2 mM TCEP); D2 symmetry imposed; open octamer
[4] = biological target: B1; assay: cryo-EM structure; NLRP3_(ΔPYD) with ATP, MCC950 (10 fold molar excess) and NEK7_(K63M/K64M) (2 fold molar excess); Superdex 200 peak fractions; C2 symmetry imposed; closed NEK7/NLRP3 dimer; details: both partners purified

Row | Binder | stoichiometry N [1] | stoichiometry N [2] | stoichiometry N [3] | binding result [4]
1 | B1 | 2 | 6 | 8 | 
2 | B2 |  |  |  | binds

Reference: paper PMC10850481, “Structural basis for the oligomerization-facilitated NLRP3 activation” (Nature Communications, 2024)
